# Source: patent US9833497B2, “Human originated EGF domain proteins and use of the same” (CHENGDU SOURCEBIO LIMITED-LIABILITY COMPANY, priority 2013, dated 2017)
# B1: PRT864 (protein, listed as Homo sapiens)
# chain: CKCNGHADTCHFDVNVWEASGNRSGGVCDDCQHNTEGQYCQRCKPGFYRDLRRPFSAPDACKP
# B2: PRT863 (protein, listed as Homo sapiens)
# chain: CFCNGHADQCIPVHGFRPVKAPGTFHMVHGKCMCKHNTAGSHCQHCAPLYNDRPWEAADGKTGAPNECRT
# B3: PRT845 (protein, listed as Homo sapiens)
# chain: CQCNGHADTCNEQDGTGCPCQNNTETGTCQGSSPSDRRDCYKYQCAKCRESFHGSPLGGQQCYR
# B4: PRT588 (protein, listed as Homo sapiens)
# chain: CDCNGHSETCHFDPAVFAASQGAYGGVCDNCRDHTEGKNCERCQLHYFRNRRPGASIQETCIS
# B5: PRT593 (protein, listed as Homo sapiens)
# chain: CFCNGHASECRPMQKMRGDVFSPPGMVHGQCVCQHNTDGPNCERCKDFFQDAPWRPAADLQDNACRS
# B6: PRT598 (protein, listed as Homo sapiens)
# chain: CSCNSHSSRCHFDMTTYLASGGLSGGVCEDCQHNTEGQHCDRCRPLFYRDPLKTISDPYACIP
# How the values were obtained:
# Assay type in all cases: cell-based
# E. coli DH5α = experiment: Antibacterial activity: MIC and growth curve against E. coli DH5α in 96-well plate; conditions: minimal inhibitory concentration against E. coli DH5α; 96-well plate, 5×10^5 CFU/mL, 37° C., judged after 8 h
# Procedure: 1. E. coli DH5α was exemplified. E. coli DH5α was streaked and cultured on LB solid medium. Then, a typical clone was picked and inoculated into common LB liquid medium, cultured at 37° C. with shaking at 185 rpm until the logarithmic growth phase was reached (OD600 of about 0.5). The bacterial culture was centrifuged at 4000×g for 3 min, the supernatant was discarded, and the thalli were resuspended with fresh LB medium.
# 2. The above-mentioned bacterial suspension was diluted and inoculated into a 96-well plate with the total volume of 100 μL per well and a bacterial count of 5×10^5 CFU/mL.
# 3. The recombinant protein hF VII-EGF1 was added to the above-mentioned wells with the final protein concentration in the well of the highest protein concentration being 50 μg/mL. Basing on this final concentration, a two-fold serial dilution was performed till a protein concentration gradient consisting of 50, 25, and 12.5 μg/mL was set up. Three parallel wells were set up for each concentration in the gradient.
# 4. The above-mentioned 96-well plate was placed and cultured at 37° C. in shaking incubator shaking at 175 rpm. Samples were taken every 30 min, the absorbance values were determined at 600 nm wavelength under a ultra violet spectrophotometer, and an inhibition curve was plotted. […] The minimal inhibitory concentration MIC is defined as the lowest concentration of the recombinant protein at which there is no growth of the bacteria.
# According to the experimental procedures in Example 14, the minimal inhibitory concentrations (MIC, μg/mL) of the other human-originated EGF domain proteins (PRT2 to PRT1498 in Table 1) for E. coli DH5α were determined.
# E. coli BL21 = experiment: MIC against Gram-negative bacteria: E. coli BL21; conditions: 5×10^5 CFU/mL; for MIC (μg/mL) E. coli BL21: 10 h cultivation at 37° C.
# Procedure: (§1) 1. Gram-negative bacteria, such as E. coli BL21, Pseudomonas aeruginosa, Klebsiella pneumonia, Enterobacter cloacae, Aeromonas hydrophila, Citrobacter diversus, Moraxella catarrhalis, Proteus mirabilis, Proteus vulgaris, Serratia marcescens, etc were streaked on solid LB medium and cultured respectively. Then, typical clones were picked, inoculated into common liquid LB medium respectively, and cultured at 37° C. with shaking at 185 rpm until the McFarland specific turbidity was 0.5. The bacterial culture of each of Gram-negative bacteria was centrifuged at 4000×g for 3 min, the supernatant was discarded, and the thalli were resuspended with fresh LB medium.
# (§2) 2. The above-mentioned bacterial suspensions were diluted and inoculated into 96-well plates with the final concentration of the bacterial suspension being 5×10^5 CFU/mL per well.
# (§3) 3. Each of the purified human-originated EGF domain proteins (PRT1 to PRT1498 in Table 1) was added to each of the above wells and subjected to two-fold serial dilution in concentration. Three parallel wells were set up for each concentration in the gradient.
# (§4) 4. The above-mentioned 96-well plates were placed and cultured at 37° C. in shaking incubator shaking at 175 rpm. […] The minimal inhibitory concentration MIC is defined as the lowest concentration of the recombinant protein at which there is no growth of the bacteria.
# Pseudomonas aeruginosa = experiment: MIC against Gram-negative bacteria: Pseudomonas aeruginosa; conditions: 5×10^5 CFU/mL; for MIC (μg/mL) P. aeruginosa: 10 h cultivation at 37° C.
# Procedure: as §1, §2, §3, §4
# Klebsiella pneumonia = experiment: MIC against Gram-negative bacteria: Klebsiella pneumonia; conditions: 5×10^5 CFU/mL; for MIC (μg/mL) K. pneumonia: 10 h cultivation at 37° C.
# Procedure: as §1, §2, §3, §4
# Enterobacter cloacae = experiment: MIC against Gram-negative bacteria: Enterobacter cloacae; conditions: 5×10^5 CFU/mL; for MIC (μg/mL) E. cloacae: 10 h cultivation at 37° C.
# Procedure: as §1, §2, §3, §4
# Aeromonas hydrophila = experiment: MIC against Gram-negative bacteria: Aeromonas hydrophila; conditions: 5×10^5 CFU/mL; for MIC (μg/mL) A. hydrophila: 10 h cultivation at 37° C.
# Procedure: as §1, §2, §3, §4
# Citrobacter diversus = experiment: MIC against Gram-negative bacteria: Citrobacter diversus; conditions: 5×10^5 CFU/mL; for MIC (μg/mL) C. diversus: 10 h cultivation at 37° C.
# Procedure: as §1, §2, §3, §4
# Moraxella catarrhalis = experiment: MIC against Gram-negative bacteria: Moraxella catarrhalis; conditions: 5×10^5 CFU/mL; for MIC (μg/mL) M. catarrhalis: 10 h cultivation at 37° C.
# Procedure: as §1, §2, §3, §4
# Proteus mirabilis = experiment: MIC against Gram-negative bacteria: Proteus mirabilis; conditions: 5×10^5 CFU/mL; for MIC (μg/mL) P. mirabilis: 10 h cultivation at 37° C.
# Procedure: as §1, §2, §3, §4
# Proteus vulgaris = experiment: MIC against Gram-negative bacteria: Proteus vulgaris; conditions: 5×10^5 CFU/mL; for MIC (μg/mL) P. vulgaris: 10 h cultivation at 37° C.
# Procedure: as §1, §2, §3, §4
# Serratia marcescens = experiment: MIC against Gram-negative bacteria: Serratia marcescens; conditions: 5×10^5 CFU/mL; for MIC (μg/mL) S. marcescens: 10 h cultivation at 37° C.
# Procedure: as §1, §2, §3, §4
Molecule,MIC (E. coli DH5α),MIC (μg/mL) E. coli BL21 (E. coli BL21),MIC (μg/mL) P. aeruginosa (Pseudomonas aeruginosa),MIC (μg/mL) K. pneumonia (Klebsiella pneumonia),MIC (μg/mL) E. cloacae (Enterobacter cloacae),MIC (μg/mL) A. hydrophila (Aeromonas hydrophila),MIC (μg/mL) C. diversus (Citrobacter diversus),MIC (μg/mL) M. catarrhalis (Moraxella catarrhalis),MIC (μg/mL) P. mirabilis (Proteus mirabilis),MIC (μg/mL) P. vulgaris (Proteus vulgaris),MIC (μg/mL) S. marcescens (Serratia marcescens),"MIC against E. coli BL21 (E. coli BL21; 96-well plate, 37° C., 10 h)","MIC against P. aeruginosa (Pseudomonas aeruginosa; 96-well plate, 37° C., 10 h)","MIC against K. pneumonia (Klebsiella pneumonia; 96-well plate, 37° C., 10 h)","MIC against E. cloacae (Enterobacter cloacae; 96-well plate, 37° C., 10 h)","MIC against A. hydrophila (Aeromonas hydrophila; 96-well plate, 37° C., 10 h)","MIC against C. diversus (Citrobacter diversus; 96-well plate, 37° C., 10 h)","MIC against M. catarrhalis (Moraxella catarrhalis; 96-well plate, 37° C., 10 h)","MIC against P. mirabilis (Proteus mirabilis; 96-well plate, 37° C., 10 h)","MIC against P. vulgaris (Proteus vulgaris; 96-well plate, 37° C., 10 h)",further results
B1,12.5 µg/mL,12.5 µg/mL,12.5 µg/mL,25 µg/mL,50 µg/mL,25 µg/mL,12.5 µg/mL,25 µg/mL,50 µg/mL,12.5 µg/mL,50 µg/mL,,,,,,,,,,
B2,50 µg/mL,12.5 µg/mL,25 µg/mL,50 µg/mL,12.5 µg/mL,12.5 µg/mL,12.5 µg/mL,12.5 µg/mL,12.5 µg/mL,25 µg/mL,12.5 µg/mL,,,,,,,,,,
B3,25 µg/mL,12.5 µg/mL,25 µg/mL,25 µg/mL,12.5 µg/mL,25 µg/mL,12.5 µg/mL,25 µg/mL,12.5 µg/mL,12.5 µg/mL,50 µg/mL,,,,,,,,,,
B4,12.5 µg/mL,,,,,,,,,,,25 µg/mL,50 µg/mL,25 µg/mL,12.5 µg/mL,25 µg/mL,12.5 µg/mL,25 µg/mL,12.5 µg/mL,25 µg/mL,"MIC against S. marcescens (Serratia marcescens; 96-well plate, 37° C., 10 h): 12.5 µg/mL"
B5,25 µg/mL,,,,,,,,,,,50 µg/mL,25 µg/mL,12.5 µg/mL,25 µg/mL,50 µg/mL,25 µg/mL,12.5 µg/mL,25 µg/mL,50 µg/mL,"MIC against S. marcescens (Serratia marcescens; 96-well plate, 37° C., 10 h): 25 µg/mL"
B6,25 µg/mL,,,,,,,,,,,,,,,,,,,,"MIC E. coli BL21 (E. coli BL21; 96-well plate, 37° C., 10 h): 50 µg/mL; MIC P. aeruginosa (Pseudomonas aeruginosa; 96-well plate, 37° C., 10 h): 12.5 µg/mL; MIC K. pneumonia (Klebsiella pneumonia; 96-well plate, 37° C., 10 h): 50 µg/mL; MIC E. cloacae (Enterobacter cloacae; 96-well plate, 37° C., 10 h): 12.5 µg/mL; MIC A. hydrophila (Aeromonas hydrophila; 96-well plate, 37° C., 10 h): 25 µg/mL; MIC C. diversus (Citrobacter diversus; 96-well plate, 37° C., 10 h): 50 µg/mL; MIC M. catarrhalis (Moraxella catarrhalis; 96-well plate, 37° C., 10 h): 25 µg/mL; MIC P. mirabilis (Proteus mirabilis; 96-well plate, 37° C., 10 h): 12.5 µg/mL; MIC P. vulgaris (Proteus vulgaris; 96-well plate, 37° C., 10 h): 50 µg/mL; MIC S. marcescens (Serratia marcescens; 96-well plate, 37° C., 10 h): 25 µg/mL"
